# Measured values reported in US20260125455A1 (CLEVELAND CLINIC FOUNDATION, published 2026).
# How the values were obtained:
# [1] = biological target: T1, human complement protein C6 (human, UniProt P13671 22-934); assay: C6-binding ELISA, A650 nm; sample 'PBS' (28 days at 37 C) [cont.) E]
# T1 construct: also called human C6; C6 antigen
# Procedure: (§1) For the serum stability assessment, samples of the purified candidate antibodies are normally incubated in mouse, human and cynomolgus serum at 37 C for 28 days and then tested in an antigen-binding ELISA. Since the anti-C6 antibodies are expected to bind to both human and cynomolgus C6 but not mouse C6, we anticipated that incubating in human or cynomolgus sera would reduce ELISA binding due to occupation of the antibody binding sites by C6 protein from the sera. Therefore, the chimeric and humanized antibodies were tested with human and mouse sera and with human sera from which the C6 protein has been depleted. The C6-binding ELISA was then used to compare the binding abilities of the C601 antibodies that had been incubated in the 3 different sera to antibody samples that were incubated in PBS at 37 C or kept at 4 C (non-incubated).
# (§2) The Uncle instrument (Unchained Labs) was used to monitor unfolding via intrinsic fluorescence and aggregation by static light scattering across a temperature gradient to obtain melting temperatures (Tₘ). […] Isoelectric points were determined by capillary isoelectric focusing using a PA800+ (Beckman Coulter). […]
# [2] = biological target: T1, human complement protein C6; assay: C6-binding ELISA, A650 nm; sample 'human serun' (human serum, 28 days at 37 C) [cont.) E]
# Procedure: as §1, with “The C6-binding ELISA was then used to compare the binding abilities of the C601 antibodies that had been incubated in the 3 different sera to antibody samples that were incubated in PBS at 37 C or kept at 4 C (non-incubated).” left out
# (§3) Binding ELISAs used Nunc Maxisorp 384-well plates, wells coated with C6, C5b,6 complex or C5 (Complement Technology Inc, TX) and goat anti-human IgG (Fab specific) peroxidase secondary antibodies (Sigma-Aldrich, A0293) for detection. For the thermal stability assay, IgG supernatants were diluted to their EC₈₀ concentration, incubated at different temperatures for 10 min and C6 binding measured by ELISA with the binding signal plotted against temperature. Kinetics of C6 binding were measured by capturing antibodies from supernatant samples using Protein G biosensors and performing a 20 min association step with 2.5 nM C6 and a 20 min dissociation step using the Octet RED96. […]
# [3] = biological target: T1, human complement protein C6; assay: SPR (Biacore 8K)
# Procedure: (§4) The kinetics of C6 binding was compared for the purified chimeric and lead humanized C601 using surface plasmon resonance (SPR, Biacore 8K). IgG were captured on a protein G sensor chip and binding of C6 measured using a three-fold concentration series of C6 from 0.03 nM-25 nM (FIG. 5). In a second experiment, a two-fold concentration series from 0.31 nM-20 nM C6 was used (FIG. 6). For all antibodies, binding of C6 occurred in a concentration-dependent manner and data could be fitted using a 1:1 model to calculate the association rate (kₒₙ), dissociation rates (kd) and affinity constant (KD). The kinetic data are shown in Table 5, which indicates only small differences between the parameters determined from the two independent experiments.
# (§5) Binding ELISAs used Nunc Maxisorp 384-well plates, wells coated with C6, C5b,6 complex or C5 (Complement Technology Inc, TX) and goat anti-human IgG (Fab specific) peroxidase secondary antibodies (Sigma-Aldrich, A0293) for detection. For the thermal stability assay, IgG supernatants were diluted to their EC₈₀ concentration, incubated at different temperatures for 10 min and C6 binding measured by ELISA with the binding signal plotted against temperature. Kinetics of C6 binding were measured by capturing antibodies from supernatant samples using Protein G biosensors and performing a 20 min association step with 2.5 nM C6 and a 20 min dissociation step using the Octet RED96. Precise kinetic measurements were obtained by surface plasmon resonance (Biacore 8K, Cytiva). The IgG were captured on a protein G sensor chip. Binding of C6 measured using a three-fold concentration series of C6 from 0.03 nM-25 nM and data were fitted using a 1:1 model in two independent experiments.
# [4] = biological target: T1, human complement protein C6; assay: SPR (Biacore 8K), IgG on protein G chip, C6 0.03-25 nM 3-fold series, 1:1 fit
# Procedure: as §4, §5
# [5] = biological target: T1, human complement protein C6; assay: C6-binding ELISA, A650 nm; sample 'PBS, non-incubated' (kept at 4 C) [cont.) E]
# Procedure: (§6) The C6-binding ELISA was then used to compare the binding abilities of the C601 antibodies that had been incubated in the 3 different sera to antibody samples that were incubated in PBS at 37 C or kept at 4 C (non-incubated).
# (§7) Binding ELISAs used Nunc Maxisorp 384-well plates, wells coated with C6, C5b,6 complex or C5 (Complement Technology Inc, TX) and goat anti-human IgG (Fab specific) peroxidase secondary antibodies (Sigma-Aldrich, A0293) for detection. For the thermal stability assay, IgG supernatants were diluted to their EC₈₀ concentration, incubated at different temperatures for 10 min and C6 binding measured by ELISA with the binding signal plotted against temperature. Kinetics of C6 binding were measured by capturing antibodies from supernatant samples using Protein G biosensors and performing a 20 min association step with 2.5 nM C6 and a 20 min dissociation step using the Octet RED96. […] Binding of C6 measured using a three-fold concentration series of C6 from 0.03 nM-25 nM and data were fitted using a 1:1 model in two independent experiments.
# (§8) The Uncle instrument (Unchained Labs) was used to monitor unfolding via intrinsic fluorescence and aggregation by static light scattering across a temperature gradient to obtain melting temperatures (Tₘ). […] Isoelectric points were determined by capillary isoelectric focusing using a PA800+ (Beckman Coulter).
# [6] = biological target: human complement protein C5 (human, UniProt P01031 19-673; P01031 678-1676); assay: ELISA, C5-coated wells
# Procedure: The 20 purified antibodies were tested by ELISA for their abilities to bind human complement proteins C5, C5b6 and C6. The antibodies were divided into two sets for this analysis. MoC601 HuG4K and HuG4K isotype controls were included alongside each set, as was C601HFKC4 HuG4K (aka 3713) expression supernatant from the original transfection as an additional positive control. In addition, three humanized antibodies (C601HFKC4 HuG4K, C601HPKI HuG4K and C601HPKC4 HuG4K) were included within both sets to allow better comparison between the plates. The antibodies all show specificity for C6 with no detectable binding to C5. All humanized antibodies bind to C6 and to C6 as part of the C5b6 complex. The lower plateaus of the C5b6 complex binding curves are explained by less C6 protein being available for binding when wells are coated with C5b6 complex as opposed to C6 alone. […] The EC₅₀ values are included in the figure but slightly different plateau levels observed for the antibodies are influencing the apparent EC₅₀ values. However, it was noted that the EC₅₀ values tended to be lower on the plates for the second set of antibodies. For this reason, a subset of the 20 antibodies was tested in a further ELISA for binding to C6 and C5b6 complex.
# as §5
# [7] = biological target: T1, human complement protein C6; assay: ELISA, C6-coated wells, large-scale purified antibody
# [8] = biological target: T1, human complement protein C6; assay: C6-binding ELISA, A650 nm; sample 'mouse serum' (28 days at 37 C) [cont.) E]
# Procedure: as §1, with “The C6-binding ELISA was then used to compare the binding abilities of the C601 antibodies that had been incubated in the 3 different sera to antibody samples that were incubated in PBS at 37 C or kept at 4 C (non-incubated).” left out
# as §3
# [9] = biological target: T1, human complement protein C6; assay: C6-binding ELISA, A650 nm; sample 'C6-depleted human serum' (28 days at 37 C) [cont.) E]
# Procedure: as §1, with “The C6-binding ELISA was then used to compare the binding abilities of the C601 antibodies that had been incubated in the 3 different sera to antibody samples that were incubated in PBS at 37 C or kept at 4 C (non-incubated).” left out
# as §3
# [10] = biological target: T1, human complement protein C6; assay: SPR (Biacore 8K), IgG on protein G chip, C6 0.31-20 nM 2-fold series, 1:1 fit
# Procedure: as §4
# [11] = biological target: T1, human complement protein C6; assay: C6-binding ELISA, A650 nm; sample 'PBS' (28 days at 37 C) [cont.) F]
# Procedure: as §1, §2
# [12] = biological target: T1, human complement protein C6; assay: C6-binding ELISA, A650 nm; sample 'mouse serum' (28 days at 37 C) [cont.) F]
# Procedure: as §1, with “The C6-binding ELISA was then used to compare the binding abilities of the C601 antibodies that had been incubated in the 3 different sera to antibody samples that were incubated in PBS at 37 C or kept at 4 C (non-incubated).” left out
# as §3
# [13] = biological target: T1, human complement protein C6; assay: C6-binding ELISA, A650 nm; sample 'PBS, non-incubated' (kept at 4 C) [cont.) F]
# Procedure: as §6, §7, §8
# [14] = biological target: T1, human complement protein C6; assay: C6-binding ELISA, A650 nm; sample 'C6-depleted human serum' (28 days at 37 C) [cont.) F]
# Procedure: as §1, with “The C6-binding ELISA was then used to compare the binding abilities of the C601 antibodies that had been incubated in the 3 different sera to antibody samples that were incubated in PBS at 37 C or kept at 4 C (non-incubated).” left out
# as §3
# [15] = biological target: T1, human complement protein C6; assay: C6-binding ELISA, A650 nm; sample 'human serun' (human serum, 28 days at 37 C) [cont.) F]
# Procedure: as §1, §2
# T1 sequence (P13671 22-934 limits assumed): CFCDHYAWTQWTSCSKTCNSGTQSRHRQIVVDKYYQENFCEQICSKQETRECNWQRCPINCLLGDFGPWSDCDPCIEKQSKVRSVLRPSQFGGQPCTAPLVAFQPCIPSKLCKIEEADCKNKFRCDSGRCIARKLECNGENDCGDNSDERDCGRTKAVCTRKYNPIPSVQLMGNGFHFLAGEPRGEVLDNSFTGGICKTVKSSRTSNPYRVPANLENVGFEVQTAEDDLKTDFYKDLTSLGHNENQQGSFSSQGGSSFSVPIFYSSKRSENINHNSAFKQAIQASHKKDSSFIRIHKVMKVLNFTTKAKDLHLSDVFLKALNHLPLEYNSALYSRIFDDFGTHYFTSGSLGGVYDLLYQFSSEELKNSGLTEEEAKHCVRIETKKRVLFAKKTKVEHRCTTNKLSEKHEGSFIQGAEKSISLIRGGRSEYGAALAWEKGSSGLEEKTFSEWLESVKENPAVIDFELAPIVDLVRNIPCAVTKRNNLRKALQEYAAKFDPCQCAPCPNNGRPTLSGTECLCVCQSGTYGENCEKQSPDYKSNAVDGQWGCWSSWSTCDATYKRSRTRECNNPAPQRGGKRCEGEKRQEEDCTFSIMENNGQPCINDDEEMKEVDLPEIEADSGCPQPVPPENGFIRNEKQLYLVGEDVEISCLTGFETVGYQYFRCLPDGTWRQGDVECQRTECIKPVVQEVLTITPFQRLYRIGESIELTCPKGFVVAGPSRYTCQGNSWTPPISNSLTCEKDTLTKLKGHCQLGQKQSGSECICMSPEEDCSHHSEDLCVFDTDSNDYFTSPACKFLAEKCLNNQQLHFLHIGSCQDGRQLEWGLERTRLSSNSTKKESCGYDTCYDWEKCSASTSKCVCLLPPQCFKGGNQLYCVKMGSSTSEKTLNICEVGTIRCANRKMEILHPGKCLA
# Chain of human complement protein C5 (P01031 19-673 limits assumed, chain 1 of 2): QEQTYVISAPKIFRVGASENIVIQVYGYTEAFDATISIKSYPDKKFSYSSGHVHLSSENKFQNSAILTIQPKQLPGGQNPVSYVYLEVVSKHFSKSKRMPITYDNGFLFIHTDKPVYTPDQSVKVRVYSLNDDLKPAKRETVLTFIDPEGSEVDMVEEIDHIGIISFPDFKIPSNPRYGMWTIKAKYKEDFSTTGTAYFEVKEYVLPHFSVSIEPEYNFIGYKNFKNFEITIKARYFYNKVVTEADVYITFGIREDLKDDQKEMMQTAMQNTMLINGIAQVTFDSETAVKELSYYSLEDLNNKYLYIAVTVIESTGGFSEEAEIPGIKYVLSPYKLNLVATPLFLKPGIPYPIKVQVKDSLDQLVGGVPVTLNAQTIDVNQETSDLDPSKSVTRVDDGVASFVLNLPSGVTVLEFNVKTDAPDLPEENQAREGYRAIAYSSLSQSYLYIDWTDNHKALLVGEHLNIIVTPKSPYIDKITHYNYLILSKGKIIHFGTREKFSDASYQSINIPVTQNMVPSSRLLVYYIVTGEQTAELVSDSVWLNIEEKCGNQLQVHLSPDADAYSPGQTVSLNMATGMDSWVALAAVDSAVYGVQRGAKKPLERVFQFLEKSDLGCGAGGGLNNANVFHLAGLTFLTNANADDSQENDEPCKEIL
# Chain of human complement protein C5 (P01031 678-1676 limits assumed, chain 2 of 2): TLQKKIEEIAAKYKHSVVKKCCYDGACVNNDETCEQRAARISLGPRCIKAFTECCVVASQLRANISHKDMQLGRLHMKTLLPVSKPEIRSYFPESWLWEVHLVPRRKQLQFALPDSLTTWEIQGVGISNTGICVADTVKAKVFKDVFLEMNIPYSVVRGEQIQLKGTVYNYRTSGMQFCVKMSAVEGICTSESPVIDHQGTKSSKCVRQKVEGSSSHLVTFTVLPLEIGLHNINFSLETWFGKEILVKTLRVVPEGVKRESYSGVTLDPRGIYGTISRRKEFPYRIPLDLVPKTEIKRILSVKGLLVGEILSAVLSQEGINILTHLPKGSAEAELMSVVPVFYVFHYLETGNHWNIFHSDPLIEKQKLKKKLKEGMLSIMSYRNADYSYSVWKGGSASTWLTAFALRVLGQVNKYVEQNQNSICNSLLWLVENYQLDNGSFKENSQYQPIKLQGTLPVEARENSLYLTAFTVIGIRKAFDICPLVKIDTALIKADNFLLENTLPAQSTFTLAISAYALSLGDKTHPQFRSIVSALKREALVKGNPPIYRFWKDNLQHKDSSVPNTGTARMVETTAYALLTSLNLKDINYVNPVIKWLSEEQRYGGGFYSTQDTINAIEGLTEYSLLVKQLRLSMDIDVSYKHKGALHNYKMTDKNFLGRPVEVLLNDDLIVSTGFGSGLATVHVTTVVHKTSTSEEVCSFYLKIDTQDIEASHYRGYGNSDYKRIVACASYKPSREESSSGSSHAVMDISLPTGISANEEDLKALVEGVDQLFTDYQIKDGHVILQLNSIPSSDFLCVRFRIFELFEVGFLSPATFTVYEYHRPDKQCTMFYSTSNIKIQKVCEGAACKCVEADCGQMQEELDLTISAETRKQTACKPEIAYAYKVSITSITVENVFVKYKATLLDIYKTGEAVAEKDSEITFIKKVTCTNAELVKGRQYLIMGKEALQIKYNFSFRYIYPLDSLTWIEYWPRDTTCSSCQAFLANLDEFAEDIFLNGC
Binder,EC50 [1],EC50 [2],Kd [3],Kd [4],koff [4],kon [4],EC50 [5],binding result [6],EC50 [7],EC50 [8],EC50 [9],Kd [10],koff [10],kon [10],EC50 [11],EC50 [12],EC50 [13],EC50 [14],EC50 [15]
"C601HOKC4 HuG4K (antibody, human IgG4 S228P, kappa, V domains shown) VH: QVQLVQSGAEVKKPGESLKISCKASGYAFSDYWINWVRQMPGKGLEWMGQIYPGDDDTNYNPSFQGQATLSADKSISTAYLQWSSLKASDTAMYYCAREGYYGYTYVEYFDVWGTGTTVTVSS VL: QIVLTQSPATLSLSPGERATLSCRASSSVSYLHWYQQKPGQSPRLWIYDTSKRATGIPARFSGSGSGTDYTLTISSLEPEDFAVYYCQQWTSNPLTFGQGTKLEIKR",0.18 nM,0.16 nM,0.411 nM,0.411 nM,0.000492 s⁻¹,1.2e+06 M⁻¹ s⁻¹,0.13 nM,no binding,0.21 nM,0.16 nM,0.15 nM,0.284 nM,0.000375 s⁻¹,1.32e+06 M⁻¹ s⁻¹,–,–,–,–,–
"C601HPKC4 HuG4K (antibody, human IgG4 S228P, kappa) heavy: not shown light: QIVLTQSPATLSLSPGERATLSCRASSSVSYLHWYQQKPGQSPRLWIYDTSKRATGIPARFSGSGSGTDYTLTISSLEPEDFAVYYCQQWTSNPLTFGQGTKLEIKRTVAAPSVFIFPPSDEQLKSGTASVVCLLNNFYPREAKVQWKVDNALQSGNSQESVTEQDSKDSTYSLSSTLTLSKADYEKHKVYACEVTHQGLSSPVTKSFNRGEC",–,–,0.373 nM,0.373 nM,0.000397 s⁻¹,1.07e+06 M⁻¹ s⁻¹,–,no binding,0.23 nM,–,–,0.299 nM,0.000355 s⁻¹,1.19e+06 M⁻¹ s⁻¹,0.19 nM,0.16 nM,0.22 nM,0.17 nM,0.17 nM
